Source: the supplement of paper PMC10065799, “High-throughput profiling of sequence recognition by tyrosine kinases and SH2 domains using bacterial peptide display” (eLife, 2023)

What was measured:
MERTK = MERTK (UniProt Q12866); test: phosphorylation enrichment, bacterial display (enrichment ratio); higher = better substrate or ligand; peptides without Tyr show the background
EPHB2 = EPHB2 (UniProt P29323); test: as above
c-Src = test: as above
Jak2 = Jak2 (UniProt O60674); test: as above
c-Abl (mouse) = test: as above
Fer (mouse) = test: as above
FGFR3 = FGFR3 (UniProt P22607); test: as above
Fyn = Fyn (UniProt P06241); test: as above
Sequence of Fyn (P06241 whole entry, looked up): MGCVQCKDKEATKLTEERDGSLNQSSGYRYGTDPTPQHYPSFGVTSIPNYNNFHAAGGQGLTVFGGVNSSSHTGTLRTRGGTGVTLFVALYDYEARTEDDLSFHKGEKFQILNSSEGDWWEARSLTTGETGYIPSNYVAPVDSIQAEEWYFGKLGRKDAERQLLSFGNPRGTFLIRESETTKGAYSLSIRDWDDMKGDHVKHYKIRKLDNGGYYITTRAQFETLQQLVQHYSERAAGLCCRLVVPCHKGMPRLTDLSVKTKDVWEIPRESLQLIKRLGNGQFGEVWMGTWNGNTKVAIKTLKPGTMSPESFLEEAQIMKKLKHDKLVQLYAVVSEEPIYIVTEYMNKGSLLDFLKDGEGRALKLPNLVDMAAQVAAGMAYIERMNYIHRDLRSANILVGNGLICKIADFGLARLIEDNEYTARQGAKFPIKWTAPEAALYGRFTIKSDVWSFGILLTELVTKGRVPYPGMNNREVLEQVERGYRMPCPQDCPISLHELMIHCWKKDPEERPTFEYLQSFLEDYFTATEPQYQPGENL

FGFR1 = FGFR1 (UniProt P11362); test: as above
EPHB1 = EPHB1 (UniProt P54762); test: as above
Hck = Hck (UniProt P08631); test: as above
Sequence of Hck (P08631 whole entry, looked up): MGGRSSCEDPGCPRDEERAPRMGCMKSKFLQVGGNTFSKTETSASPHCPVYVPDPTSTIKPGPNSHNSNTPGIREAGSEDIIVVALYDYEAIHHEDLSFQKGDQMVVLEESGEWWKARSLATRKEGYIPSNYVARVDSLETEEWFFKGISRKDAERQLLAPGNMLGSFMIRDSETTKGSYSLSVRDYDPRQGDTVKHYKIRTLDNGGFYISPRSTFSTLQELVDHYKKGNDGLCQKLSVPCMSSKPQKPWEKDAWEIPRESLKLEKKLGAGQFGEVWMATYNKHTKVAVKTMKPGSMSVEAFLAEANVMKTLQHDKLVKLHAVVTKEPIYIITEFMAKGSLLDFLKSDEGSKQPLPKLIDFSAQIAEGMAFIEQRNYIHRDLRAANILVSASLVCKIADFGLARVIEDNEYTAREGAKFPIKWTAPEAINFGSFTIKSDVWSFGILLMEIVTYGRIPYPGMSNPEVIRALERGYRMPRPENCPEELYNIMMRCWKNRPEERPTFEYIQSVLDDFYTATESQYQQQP

AncSZ = test: as above
Fes = Fes (UniProt P07332); test: as above
Sequence of Fes (P07332 whole entry, looked up): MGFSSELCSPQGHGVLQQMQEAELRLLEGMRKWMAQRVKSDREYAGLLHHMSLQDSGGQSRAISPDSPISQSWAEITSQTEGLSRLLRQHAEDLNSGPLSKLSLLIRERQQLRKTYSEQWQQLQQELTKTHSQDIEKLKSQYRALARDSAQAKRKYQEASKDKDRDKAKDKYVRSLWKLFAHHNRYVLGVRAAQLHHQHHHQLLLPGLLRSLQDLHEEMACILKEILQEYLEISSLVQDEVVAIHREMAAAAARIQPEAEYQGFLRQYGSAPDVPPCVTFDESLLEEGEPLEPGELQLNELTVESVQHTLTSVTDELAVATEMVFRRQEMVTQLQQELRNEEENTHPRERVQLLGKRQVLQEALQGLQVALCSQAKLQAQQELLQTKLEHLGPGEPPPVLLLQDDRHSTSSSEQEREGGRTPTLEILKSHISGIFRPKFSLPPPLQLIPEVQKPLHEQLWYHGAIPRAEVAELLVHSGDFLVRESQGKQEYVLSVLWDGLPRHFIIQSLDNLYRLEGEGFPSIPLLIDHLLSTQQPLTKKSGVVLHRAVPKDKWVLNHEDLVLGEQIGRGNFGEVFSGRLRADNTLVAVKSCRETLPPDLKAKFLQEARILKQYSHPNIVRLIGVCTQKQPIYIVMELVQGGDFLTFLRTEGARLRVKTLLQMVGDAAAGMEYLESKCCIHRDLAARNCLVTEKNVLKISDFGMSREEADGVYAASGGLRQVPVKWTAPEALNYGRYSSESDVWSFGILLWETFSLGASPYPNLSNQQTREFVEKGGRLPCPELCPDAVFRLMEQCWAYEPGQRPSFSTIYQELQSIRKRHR

SHP2-C SH2 = test: SH2 binding enrichment of the phosphorylated peptide, bacterial display (enrichment ratio); higher = better substrate or ligand; peptides without Tyr show the background
c-Src SH2 = test: as above
Grb2 SH2 = Grb2 SH2 (UniProt P62993); test: as above
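For SH2 binding enrichment of the phosphorylated peptide, bacterial display in this document: peptide library displayed on the E. coli surface as eCPX fusions, selected cells deep-sequenced, score is each peptide's frequency after selection divided by its frequency in the input.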
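For phosphorylation enrichment, bacterial display in this document: 11-residue human phosphosite peptides and single-mutation variants displayed on the E. coli surface, counted by deep sequencing, each peptide's frequency after selection divided by its frequency in the unselected input library; frequency after pTyr selection over input frequency; kinase dosed for 20-30% of maximal phosphorylation in three min.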

Sequence of Jak2 (O60674 whole entry, looked up): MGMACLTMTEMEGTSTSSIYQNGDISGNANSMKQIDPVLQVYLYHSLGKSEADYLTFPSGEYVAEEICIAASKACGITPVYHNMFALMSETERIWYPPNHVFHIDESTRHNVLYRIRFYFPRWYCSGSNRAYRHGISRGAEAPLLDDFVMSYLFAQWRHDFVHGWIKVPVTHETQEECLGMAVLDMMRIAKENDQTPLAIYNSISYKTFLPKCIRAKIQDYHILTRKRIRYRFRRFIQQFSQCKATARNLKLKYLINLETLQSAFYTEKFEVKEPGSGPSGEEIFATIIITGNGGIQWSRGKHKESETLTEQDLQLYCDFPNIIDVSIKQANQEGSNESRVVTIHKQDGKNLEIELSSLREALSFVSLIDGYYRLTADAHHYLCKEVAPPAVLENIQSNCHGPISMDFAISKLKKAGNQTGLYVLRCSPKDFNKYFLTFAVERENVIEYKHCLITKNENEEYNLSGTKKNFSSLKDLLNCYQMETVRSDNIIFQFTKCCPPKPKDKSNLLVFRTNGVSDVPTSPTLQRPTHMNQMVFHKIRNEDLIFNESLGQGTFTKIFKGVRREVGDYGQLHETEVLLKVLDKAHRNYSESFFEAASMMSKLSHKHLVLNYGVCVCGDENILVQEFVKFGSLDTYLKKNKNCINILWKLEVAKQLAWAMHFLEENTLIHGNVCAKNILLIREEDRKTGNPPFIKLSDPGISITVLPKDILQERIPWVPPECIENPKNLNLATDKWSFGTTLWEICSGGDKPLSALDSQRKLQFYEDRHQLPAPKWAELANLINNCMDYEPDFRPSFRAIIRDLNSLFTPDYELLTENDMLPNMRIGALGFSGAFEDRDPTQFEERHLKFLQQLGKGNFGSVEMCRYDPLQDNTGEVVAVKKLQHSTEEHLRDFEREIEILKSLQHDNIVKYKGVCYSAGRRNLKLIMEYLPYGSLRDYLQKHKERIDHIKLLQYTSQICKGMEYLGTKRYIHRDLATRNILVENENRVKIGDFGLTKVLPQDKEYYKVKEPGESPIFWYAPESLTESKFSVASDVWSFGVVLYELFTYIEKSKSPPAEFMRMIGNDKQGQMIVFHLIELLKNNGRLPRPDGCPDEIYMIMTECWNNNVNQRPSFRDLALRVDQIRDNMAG
Sequence of MERTK (Q12866 whole entry, looked up): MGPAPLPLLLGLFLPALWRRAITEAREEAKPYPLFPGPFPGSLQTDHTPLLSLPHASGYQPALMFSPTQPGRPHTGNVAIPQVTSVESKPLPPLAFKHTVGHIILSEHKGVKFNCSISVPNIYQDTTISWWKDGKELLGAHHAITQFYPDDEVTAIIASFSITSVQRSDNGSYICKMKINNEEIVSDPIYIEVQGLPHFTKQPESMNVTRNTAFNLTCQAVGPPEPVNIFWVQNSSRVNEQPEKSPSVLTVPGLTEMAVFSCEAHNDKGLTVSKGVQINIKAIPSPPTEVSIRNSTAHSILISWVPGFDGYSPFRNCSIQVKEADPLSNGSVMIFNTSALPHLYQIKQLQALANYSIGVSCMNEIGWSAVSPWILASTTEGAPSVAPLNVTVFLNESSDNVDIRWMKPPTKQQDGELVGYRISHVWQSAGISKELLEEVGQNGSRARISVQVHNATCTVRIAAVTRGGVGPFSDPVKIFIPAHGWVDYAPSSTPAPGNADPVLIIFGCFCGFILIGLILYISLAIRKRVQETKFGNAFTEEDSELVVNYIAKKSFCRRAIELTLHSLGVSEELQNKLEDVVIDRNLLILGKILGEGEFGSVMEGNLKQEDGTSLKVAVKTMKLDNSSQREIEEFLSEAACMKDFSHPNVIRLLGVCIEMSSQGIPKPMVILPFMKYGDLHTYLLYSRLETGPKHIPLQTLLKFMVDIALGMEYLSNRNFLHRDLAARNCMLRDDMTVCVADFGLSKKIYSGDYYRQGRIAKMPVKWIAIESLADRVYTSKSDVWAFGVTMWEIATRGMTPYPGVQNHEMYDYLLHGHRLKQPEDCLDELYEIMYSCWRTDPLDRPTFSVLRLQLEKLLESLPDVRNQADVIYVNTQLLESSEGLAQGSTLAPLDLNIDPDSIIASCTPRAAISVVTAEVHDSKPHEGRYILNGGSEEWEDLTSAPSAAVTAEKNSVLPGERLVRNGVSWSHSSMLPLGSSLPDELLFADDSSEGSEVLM
Sequence of EPHB2 (P29323 whole entry, looked up): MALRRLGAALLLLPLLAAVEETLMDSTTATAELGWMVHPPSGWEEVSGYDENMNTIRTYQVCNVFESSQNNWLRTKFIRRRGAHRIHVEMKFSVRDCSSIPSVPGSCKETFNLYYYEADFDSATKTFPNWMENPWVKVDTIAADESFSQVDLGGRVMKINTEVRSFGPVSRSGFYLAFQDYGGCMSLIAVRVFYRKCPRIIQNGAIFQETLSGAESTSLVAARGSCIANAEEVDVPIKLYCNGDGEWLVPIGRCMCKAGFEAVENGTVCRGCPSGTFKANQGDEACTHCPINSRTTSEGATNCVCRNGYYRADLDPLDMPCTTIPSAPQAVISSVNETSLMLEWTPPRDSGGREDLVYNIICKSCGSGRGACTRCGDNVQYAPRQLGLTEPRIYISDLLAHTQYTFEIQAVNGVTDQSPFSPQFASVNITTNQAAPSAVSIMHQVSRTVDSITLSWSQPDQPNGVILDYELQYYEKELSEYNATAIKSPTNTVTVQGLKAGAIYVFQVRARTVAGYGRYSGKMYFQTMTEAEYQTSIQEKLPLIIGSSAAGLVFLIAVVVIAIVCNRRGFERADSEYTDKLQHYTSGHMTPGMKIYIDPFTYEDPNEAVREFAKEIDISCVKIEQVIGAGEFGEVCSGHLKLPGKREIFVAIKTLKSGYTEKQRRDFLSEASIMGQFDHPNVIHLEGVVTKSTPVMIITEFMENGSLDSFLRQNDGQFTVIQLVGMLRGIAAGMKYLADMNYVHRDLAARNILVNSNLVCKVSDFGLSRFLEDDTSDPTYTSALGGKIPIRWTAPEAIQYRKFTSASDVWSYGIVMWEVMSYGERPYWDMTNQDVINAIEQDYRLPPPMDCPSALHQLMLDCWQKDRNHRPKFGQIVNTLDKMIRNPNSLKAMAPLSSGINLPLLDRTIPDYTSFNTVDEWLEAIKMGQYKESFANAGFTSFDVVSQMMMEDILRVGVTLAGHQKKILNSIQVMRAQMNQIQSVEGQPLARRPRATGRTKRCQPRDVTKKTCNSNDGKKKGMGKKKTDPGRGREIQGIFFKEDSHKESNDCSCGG

Sequence | phosphorylation enrichment (MERTK) | phosphorylation enrichment (EPHB2) | phosphorylation enrichment (c-Src) | phosphorylation enrichment (Jak2) | phosphorylation enrichment (c-Abl (mouse)) | phosphorylation enrichment (Fer (mouse)) | phosphorylation enrichment (FGFR3) | phosphorylation enrichment (Fyn) | phosphorylation enrichment (FGFR1) | phosphorylation enrichment (EPHB1) | phosphorylation enrichment (Hck) | phosphorylation enrichment (AncSZ) | phosphorylation enrichment (Fes) | SH2 binding enrichment (SHP2-C SH2) | SH2 binding enrichment (c-Src SH2) | SH2 binding enrichment (Grb2 SH2)
KNDSIYVVKGN [KIT_Y823_N822I] | 0.443 | 0.689 | 0.922 | 0.516 | 0.47 | 0.47 | 0.469 | 0.786 | 0.39 | 0.339 | 1.35 | 0.574 | 0.647 | 0.707 | 0.507 | 0.848
KNNDGNIDFAE [MCFD2_Y135_Y135N_YF] | 0.589 | 0.673 | 0.462 | 1.21 | 1 | 0.525 | 0.683 | 0.558 | 0.447 | 0.504 | 0.539 | 1.07 | 1.26 | 0.834 | 0.6 | 0.912
KQFWRYFPGNL [SLC25A4_Y112_A114P] | 0.402 | 0.521 | 0.496 | 0.919 | 0.695 | 0.469 | 0.676 | 0.35 | 0.444 | 0.625 | 0.524 | 0.904 | 1.02 | 0.863 | 0.739 | 1.18
KRIKSYNQEND [RPGRIP1L_Y448_L447S] | 0.43 | 0.341 | 0.409 | 0.466 | 0.454 | 0.416 | 0.395 | 0.358 | 0.396 | 0.442 | 0.33 | 0.436 | 0.53 | 0.681 | 0.503 | 0.711
KSSDVYVSFDF [SORL1_Y136_YF] | 3.34 | 1.11 | 4.3 | 0.983 | 0.935 | 4.79 | 2.81 | 5.77 | 3.78 | 1.73 | 3.02 | 1.21 | 1.22 | 0.715 | 0.497 | 0.891
KSVVTYSPTTG [ITGB3BP_Y32_I30V] | 0.423 | 0.416 | 0.431 | 0.489 | 0.618 | 0.369 | 0.442 | 0.401 | 0.375 | 0.427 | 0.372 | 0.478 | 0.527 | 0.668 | 0.397 | 0.814
KVDKECEVRVR [GHR_Y226_Y226C] | 0.355 | 0.569 | 0.446 | 0.821 | 0.638 | 0.478 | 0.556 | 0.421 | 0.502 | 0.513 | 0.414 | 0.739 | 0.832 | 0.842 | 0.575 | 0.889
KVFRVYQGQQP [MUTYH_Y494] | 0.344 | 0.415 | 0.375 | 0.484 | 0.413 | 0.37 | 0.494 | 0.374 | 0.439 | 0.308 | 0.388 | 0.569 | 0.608 | 0.55 | 0.52 | 0.849
KVGNEYVNKGQ [MYH7_Y410_T412N] | 0.373 | 0.553 | 0.428 | 0.424 | 0.422 | 0.404 | 0.391 | 0.412 | 0.492 | 0.337 | 0.327 | 0.581 | 0.541 | 0.706 | 0.444 | 2.24
KVMANYVYKAG [MAML2_Y513_M514V] | 0.361 | 0.37 | 0.355 | 0.514 | 0.453 | 0.358 | 0.452 | 0.339 | 0.398 | 0.395 | 0.386 | 0.465 | 0.551 | 1.28 | 0.723 | 0.874
KVNKIYFPDFI [LIG3_Y767_YF] | 0.473 | 0.399 | 0.478 | 0.712 | 0.566 | 0.4 | 1.26 | 0.455 | 1.24 | 0.427 | 0.543 | 0.799 | 0.855 | 0.844 | 0.692 | 0.946
KVPELYEIHTE [BCR_Y554_K558T] | 0.508 | 0.945 | 0.546 | 0.827 | 0.712 | 0.74 | 0.68 | 0.629 | 0.578 | 0.94 | 0.745 | 1.19 | 0.984 | 0.696 | 0.525 | 0.969
KVVQEYERVII [NPHS2_Y131] | 0.435 | 2.79 | 0.457 | 0.801 | 0.757 | 3.84 | 0.719 | 0.485 | 0.633 | 3.17 | 0.563 | 1.09 | 0.956 | 0.653 | 0.564 | 0.811
KYACSYTPVKA [FLNB_Y708_T703K] | 0.414 | 0.417 | 0.432 | 0.598 | 0.557 | 0.438 | 0.697 | 0.387 | 0.576 | 0.473 | 0.483 | 0.689 | 0.758 | 2.91 | 1.28 | 1.05
KYLENYLNRLL [PLD2_Y169] | 0.478 | 0.483 | 0.475 | 0.859 | 0.809 | 0.609 | 0.577 | 0.45 | 0.459 | 0.523 | 0.414 | 0.832 | 0.989 | 1.44 | 1.27 | 1.46
LAAAKYKLNVD [SMARCA2_Y1190] | 0.309 | 0.336 | 0.489 | 0.42 | 0.593 | 0.52 | 0.556 | 0.262 | 0.322 | 0.426 | 0.181 | 0.444 | 0.766 | 1.17 | 0.386 | 0.812
